These results are taken from publication PMC4865633, “Data on dimer formation between importin α subtypes” (Data in Brief, 2016).

B1: GST-h-importin α3 (KPNA4, Qip1) (natural protein)
chain: MADNEKLDNQRLKNFKNKGRDLETMRRQRNEVVVELRKNKRDEHLLKRRNVPHEDICEDSDIDGDYRVQNTSLEAIVQNASSDNQGIQLSAVQAARKLLSSDRNPPIDDLIKSGILPILVHCLERDDNPSLQFEAAWALTNIASGTSEQTQAVVQSNAVPLFLRLLHSPHQNVCEQAVWALGNIIGDGPQCRDYVISLGVVKPLLSFISPSIPITFLRNVTWVMVNLCRHKDPPPPMETIQEILPALCVLIHHTDVNILVDTVWALSYLTDAGNEQIQMVIDSGIVPHLVPLLSHQEVKVQTAALRAVGNIVTGTDEQTQVVLNCDALSHFPALLTHPKEKINKEAVWFLSNITAGNQQQVQAVIDANLVPMIIHLLDKGDFGTQKEAAWAISNLTISGRKDQVAYLIQQNVIPPFCNLLTVKDAQVVQVVLDGLSNILKMAEDEAETIGNLIEECGGLEKIEQLQNHENEDIYKLAYEIIDQFFSSDDIDEDPSLVPEAIQGGTFGFNSSANVPTEGFQF
notes: human importin α3 (KPNA4, Qip1); plasmid pGEX2T-human-importin α3, obtained as described previously; also called GST-importin α3; IMPα3; source: E. coli Rosetta, purified on GSH beads, bacterially expressed and purified recombinant protein
B2: FLAG-h-importin α8 (KPNA7) (natural protein)
chain: not shown
notes: human importin α8 (KPNA7), amplified from pcDNA5/3xFLAG-h-importin α8 with primers from the start codon to the stop codon, in pGEX6P3; Cleavage of GST is told in general in the methods; also called FLAG-importin α8; IMPα8; source: E. coli Rosetta, GST fusion purified on GSH beads, bacterially expressed and purified recombinant protein; not shown: FLAG, N-terminal, kept
B3: SV40TNLS-GFP (domain or fragment)
chain: PPKKKRKVED
notes: also called SV40TNLS substrate; SV40 large T antigen NLS

Holding throughout (settings): both partners purified
Experiment [1] deals with FLAG-h-importin α1 (KPNA2) (human, UniProt P52292 1-529). Nature of the experiment: pull-down; GST-h-importin α3 (50 pmol) on GSH beads preincubated with p53 (250 pmol) in TB with 0.1% Triton X-100 at 4 °C for 1 h, washed, then 50 or 500 pmol FLAG-h-importin α8 or α1 added at 4 °C for 1 h; western blot (Fig. 2B). Background: In western blotting, separated proteins are transferred to a membrane and probed.

Experiment [2] addresses B1. The description is as above.
For experiment [3], the target named is T1, GST-h-importin α8 (KPNA7) (human, UniProt A9QM74 1-516).
T1 construct: human importin α8 (KPNA7); also called GST-importin α8; IMPα8; source: E. coli Rosetta, purified on GSH beads, bacterially expressed and purified recombinant protein
T1 sequence (A9QM74 whole entry): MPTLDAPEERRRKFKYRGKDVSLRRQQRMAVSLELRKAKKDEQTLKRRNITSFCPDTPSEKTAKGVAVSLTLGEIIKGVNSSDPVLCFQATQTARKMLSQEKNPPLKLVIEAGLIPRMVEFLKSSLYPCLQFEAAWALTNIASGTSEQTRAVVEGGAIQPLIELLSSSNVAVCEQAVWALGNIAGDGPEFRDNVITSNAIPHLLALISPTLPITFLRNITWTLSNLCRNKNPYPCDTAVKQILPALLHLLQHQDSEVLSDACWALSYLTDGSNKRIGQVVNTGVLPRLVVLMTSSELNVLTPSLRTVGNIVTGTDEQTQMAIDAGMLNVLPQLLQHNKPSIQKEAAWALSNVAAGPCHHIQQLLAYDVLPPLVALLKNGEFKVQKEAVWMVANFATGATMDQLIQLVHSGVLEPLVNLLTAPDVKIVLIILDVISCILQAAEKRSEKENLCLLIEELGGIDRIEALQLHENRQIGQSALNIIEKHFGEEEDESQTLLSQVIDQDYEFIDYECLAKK
Nature of the experiment: pull-down; GST fusions immobilized on GSH beads, 100 pmol FLAG-importin α in 200 μL transport buffer (20 mM HEPES pH 7.3, 110 mM potassium acetate, 2 mM magnesium acetate, 1 mM EGTA, 1 mM DTT) with 0.1% Triton X-100, 4 °C, 1 h; western blot with anti-FLAG and anti-GST (Fig. 1A).

Experiment [4] deals with GST-m-importin α1 (KPNA2) (mouse, UniProt P52293 1-529). The experiment is described as above.
The target in experiment [5] is B1. Kind of experiment: pull-down; GST-h-importin α3 (50 pmol) on GSH beads preincubated with SV40TNLS-GFP (50 pmol) at 4 °C for 1 h, washed, then 50 or 500 pmol FLAG-h-importin α8 or α1 added at 4 °C for 1 h; western blot (Fig. 1B).

Turning to B1, in experiment [1], the binding result is recorded as “binds”.

With B2, the binding result in experiment [2], in experiment [3] and in experiment [4] was “binds” throughout.

For the molecule B3, the binding result in experiment [5] is given as “binds”.
